# Laboratory results as given in patent US6875851B1 (priority 1999, dated 2005).
# B1: α1-antichymotrypsin: Human plasma inhibitor (protein)
# chain: HPNSPLDEENLTQENQDRGTHVDLGLASANVDFAFSLYKQLVLKAPDKNVIFSPLSISTALAFLSLGAHNTTLTEILKGLKFNLTETSEAEIHQSFQHLLRTLNQSSDELQLSMGNAMFVKEQLSLLDRFTEDAKRLYGSEAFATDFQDSAAAKKLINDYVKNGTRGKITDLIKDLDSQTMMVLVNYIFFKAKWEMPFDPQDTHQSRFYLSKKKWVMVPMMSLHHLTIPYFRDEELSCTVVELKYTGNASALFILPDQDKMEEVEAMLLPETLKRWRDSLEFREIGELYLPKFSISRDYNLNDILLQLGIEEAFTSKADLSGITGARNLAVSQVVHKAVLDVFEEGTEASAATAVKITLLSALVETRTIVRFNRPFLMIIVPTDTQNIFFMSKVTNPKQA
# B2: human cystatin C: protein substrate, provided by Dr. Magnus Abrahamson (protein)
# chain: SSPGKPPRLVGGPMDASVEEEGVRRALDFAVGEYNKASNDMYHSRALQVVRARKQIVAGVNYFLDVELGRTTCTKTQPNLDNCPFHDQPHLKRKAFCSFQIYAVPWQGTMTLSKSTCQDA
# B3: PTP-A: prolyl-tripeptidyl peptidase A (SEQ ID NO:30) from P. gingivalis (protein, listed as Porphyromonas gingivalis)
# chain: MKKTIFQQLFLSVCALTVALPCSAQSPETSGKEFTLEQLMPGGKEFYNFYPEYVVGLQWMGDNYVFIEGDDLVFNKANGKSAQTTRFSAADLNALMPEGCKFQTTDAFPSFRTLDAGRGLVVLFTQGGLVGFDMLARKVTYLFDTNEETASLDFSPVGDRVAYVRNHNLYIARGGKLGEGMSRAIAVTIDGTETLVYGQAVHQREFGIEKGTFWSPKGSCLAFYRMDQSMVKPTPIVDYHPLEAESKPLYYPMAGTPSHHVTVGIYHLATGKTVYLQTGEPKEKFLTNLSWSPDENILYVAEVNRAQNECKVNAYDAETGRFVRTLFVETDKHYVEPLHPLTFLPGSNNQFIWQSRRDGWNHLYLYDTTGRLIRQVTKGEWEVTNFAGFDPKGTRLYFESTEASPLERHFYCIDIKGGKTKDLTPESGMHRTQLSPDGSAIIDIFQSPTVPRKVTVTNIGKGSHTLLEAKNPDTGYAMPEIRTGTIMAADGQTPLYYKLTMPLHFDPAKKYPVIVYVYGGPHAQLVTKTWRSSVGGWDIYMAQKGYAVFTVDSRGSANRGAAFEQVIHRRLGQTEMADQMCGVDFLKSQSWVDADRIGVHGWSYGGFMTTNLMLTHGDVFKVGVAGGPVIDWNRYEIMYGERYFDAPQENPEGYDAANLLKRAGDLKGRLMLIHGAIDPVVVWQHSLLFLDACVKARTYPDYYVYPSHEHNVMGPDRVHLYETITRYFTDHL
# B4: α2-macroglobulin: Human plasma inhibitor (protein)
# chain: SVSGKPQYMVLVPSLLHTETTEKGCVLLSYLNETVTVSASLESVRGNRSLFTDLEAENDVLHCVAFAVPKSSSNEEVMFLTVQVKGPTQEFKKRTTVMVKNEDSLVFVQTDKSIYKPGQTVKFRVVSMDENFHPLNELIPLVYIQDPKGNRIAQWQSFQLEGGLKQFSFPLSSEPFQGSYKVVVQKKSGGRTEHPFTVEEFVLPKFEVQVTVPKIITILEEEMNVSVCGLYTYGKPVPGHVTVSICRKYSDASDCHGEDSQAFCEKFSGQLNSHGCFYQQVKTKVFQLKRKEYEMKLHTEAQIQEEGTVVELTGRQSSEITRTITKLSFVKVDSHFRQGIPFFGQVRLVDGKGVPIPNKVIFIRGNEANYYSNATTDEHGLVQFSINTTNVMGTSLTVRVNYKDRSPCYGYQWVSEEHEEAHHTAYLVFSPSKSFVHLEPMSHELPCGHTQTVQAHYILNGGTLLGLKKLSFYYLIMAKGGIVRTGTHGLLVKQEDMKGHFSISIPVKSDIAPVARLLIYAVLPTGDVIGDSAKYDVENCLANKVDLSFSPSQSLPASHAHLRVTAAPQSVCALRAVDQSVLLMKPDAELSASSVYNLLPEKDLTGFPGPLNDQDNEDCINRHNVYINGITYTPVSSTNEKDMYSFLEDMGLKAFTNSKIRKPKMCPQLQQYEMHGPEGLRVGFYESDVMGRGHARLVHVEEPHTETVRKYFPETWIWDLVVVNSAGVAEVGVTVPDTITEWKAGAFCLSEDAGLGISSTASLRAFQPFFVELTMPYSVIRGEAFTLKATVLNYLPKCIRVSVQLEASPAFLAVPVEKEQAPHCICANGRQTVSWAVTPKSLGNVNFTVSAEALESQELCGTEVPSVPEHGRKDTVIKPLLVEPEGLEKETTFNSLLCPSGGEVSEELSLKLPPNVVEESARASVSVLGDILGSAMQNTQNLLQMPYGCGEQNMVLFAPNIYVLDYLNETQQLTPEIKSKAIGYLNTGYQRQLNYKHYDGSYSTFGERYGRNQGNTWLTAFVLKTFAQARAYIFIDEAHITQALIWLSQRQKDNGCFRSSGSLLNNAIKGGVEDEVTLSAYITIALLEIPLTVTHPVVRNALFCLESAWKTAQEGDHGSHVYTKALLAYAFALAGNQDKRKEVLKSLNEEAVKKDNSVHWERPQKPKAPVGHFYEPQAPSAEVEMTSYVLLAYLTAQPAPTSEDLTSATNIVKWITKQQNAQGGFSSTQDTVVALHALSKYGAATFTRTGKAAQVTIQSSGTFSSKFQVDNNNRLLLQQVSLPELPGEYSMKVTGEGCVYLQTSLKYNILPEKEEFPFALGVQTLPQTCDEPKAHTSFQISLSVSYTGSRSASNMAIVDVKMVSGFIPLKPTVKMLERSNHVSRTEVSSNHVLIYLDKVSNQTLSLFFTVLQDVPVRDLKPAIVKVYDYYETDEFAIAEYNAPCSKDLGNA
# Assays:
# [1] = tested on: PTP-A; format: biochemical, P. gingivalis
# [2] = tested on: PTP-A; format: biochemical, P. gingivalis; remark: listed apart in the source
# [3] = pH optimum and stability of PTP-A by amidolytic activity assay; format: physicochemical, P. gingivalis; conditions: 0.2 M HEPES
# Description: Enzyme Activity Assays—Routinely, the tripeptidyl peptidase amidolytic activity was measured with H-Ala-Phe-Pro-pNA (1 mM) in 0.2 M HEPES (N-2-hydroxyethylpeperazine,N′-2-ethansulfonic acid), pH 7.5 at 37° C. The concentration of enzyme was 0.1 nM to 1 nM. The assay was performed in a total volume of 0.2 ml on microplates, and the initial turnover rate was recorded at 405 nm using a microplate reader (Spectramax Molecular Devices, Sunnyvale, Calif.). In inhibition studies, the enzyme was first preincubated with inhibitor for 15 min at 37° C., substrate added, and residual activity recorded after 5 minutes to 30 minutes. H-Gly-Pro-pNA, Z-Ala-Pro-pNA, Z-Gly-Pro-pNA and H-Pro-pNA (1 mM final concentration) were assayed in the same manner.
# PTP-A activity was not affected by class specific synthetic inhibitors of cysteine or metalloproteinases (Table 2).
Molecule,Effect on PTP-A amidolytic activity (in words) [1],Cleavage of protein by PTP-A (in words) [2],"Stability (time stable) ([3]; pH 7.6, 25° C.)","Stability (time stable) ([3]; pH 7.6, 37° C.)"
B1,did not affect the enzyme activity,nor were they cleaved by PTP-A,,
B2,,able to cleave a tripeptide,,
B3,,,at least 12 hours,at least 12 hours
B4,did not affect the enzyme activity,nor were they cleaved by PTP-A,,
